According to patent publication US20210388105A1 (ELPISCIENCE SUZHOU BIOPHARMA, published 2021):

Biological target: T1, human CD39 (full length, on cells) (human, UniProt P49961 1-510)
T1 construct: Recombinant on CHOK1-hCD39 cells or natural on SK-MEL-28, SK-MEL-5 and MOLP-8 cells; the cell line is named under assay; also called hCD39; ENTPD1
T1 sequence: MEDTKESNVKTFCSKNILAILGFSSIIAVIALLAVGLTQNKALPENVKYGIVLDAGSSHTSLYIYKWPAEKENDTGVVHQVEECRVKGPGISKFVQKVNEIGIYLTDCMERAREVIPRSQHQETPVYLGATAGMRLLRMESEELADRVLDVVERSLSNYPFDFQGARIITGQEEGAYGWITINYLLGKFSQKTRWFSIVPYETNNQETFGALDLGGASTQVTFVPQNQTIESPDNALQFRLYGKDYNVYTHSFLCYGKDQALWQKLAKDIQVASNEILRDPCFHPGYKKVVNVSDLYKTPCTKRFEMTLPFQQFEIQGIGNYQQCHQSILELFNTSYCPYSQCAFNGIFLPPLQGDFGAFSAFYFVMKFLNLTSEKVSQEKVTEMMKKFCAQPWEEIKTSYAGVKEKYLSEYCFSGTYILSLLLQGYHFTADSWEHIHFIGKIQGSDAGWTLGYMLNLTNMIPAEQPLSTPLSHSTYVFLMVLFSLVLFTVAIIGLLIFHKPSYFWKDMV
Assay: FACS, MOLP-8 cells
Description: Similarly, human CD39 expressing cells SK-MEL-5, SK-MEL-28 or MOLP-8, were incubated with a gradient concentration of anti-CD39 antibodies for 30 minutes at 4° C. Cells were washed 3 times using FACS buffer and next incubated with fluorescence labelled secondary antibody (goat-anti-mouse IgG or goat anti-human IgG) for 30 minutes at 4° C. Cells were washed 3 times and then re-suspended in FACS buffer and analyzed by flow cytometry analysis on BD Celesta. Data plotted and analyzed using GraphPad Prism 8.02.
The binding affinity of the humanized antibodies for c23 was determined by FACS, using similar methods as described in Example 3.2. The c23 humanized antibody clones showing good binding affinity are listed in below Table 19 and Table 20, and also shown in FIGS. 7A, 7B and FIG. 8. EC₅₀ is the concentration of the indicated antibodies to reach 50% of the signal in this assay.

Row | Binder | EC50
1 | hu23.H1L1 (antibody, V domains shown, humanized c23) VH: QVQLVQSGAEVKKPGASVKVSCKASGYNLKDTFLHWVRQAPGQRLEWMGRIDPANGNIKYDPKFQGRVTITRDTSASTAYMELSSLRSEDTAVYYCARSPYYYGSGYRIFDVWGQGTTVTVSS VL: EIVLTQSPATLSLSPGERATLSCSAFSSVNYMHWYQQKPGQAPRLLIYTTSNLASGIPARFSGSGSGTDFTLTISSLEPEDFAVYYCQQRSTYPFTFGQGTKLEIK | ~77.1 nM
2 | hu23.H3L4 (antibody, V domains shown, humanized c23) VH: QVQLVQSGAEVKKPGASVKLSCKASGYNLKDTFLHWVRQAPGQGLEWIGRIDPANGNIKYDPKFQGRATITADTSASTAYMELSSLRSEDTAVYYCANSPYYYGSGYRIFDVWGQGTTVTVSS VL: EIVLTQSPATLSASPGERVTISCSAFSSVNYMHWYQQKPGQAPRLLIYTTSNLASGIPARFSGSGSGTDYTLTISSMEPEDFAVYYCQQRSTYPFTFGQGTKLEIK | 1.61 nM
3 | hu23.H2L1 (antibody, V domains shown, humanized c23) VH: QVQLVQSGAEVKKPGASVKVSCKASGYNLKDTFLHWVRQAPGQGLEWMGRIDPANGNIKYDPKFQGRVTITADTSASTAYMELSSLRSEDTAVYYCANSPYYYGSGYRIFDVWGQGTTVTVSS VL: EIVLTQSPATLSLSPGERATLSCSAFSSVNYMHWYQQKPGQAPRLLIYTTSNLASGIPARFSGSGSGTDFTLTISSLEPEDFAVYYCQQRSTYPFTFGQGTKLEIK | 65.9 nM
4 | hu23.H2L4 (antibody, V domains shown, humanized c23) VH: QVQLVQSGAEVKKPGASVKVSCKASGYNLKDTFLHWVRQAPGQGLEWMGRIDPANGNIKYDPKFQGRVTITADTSASTAYMELSSLRSEDTAVYYCANSPYYYGSGYRIFDVWGQGTTVTVSS VL: EIVLTQSPATLSASPGERVTISCSAFSSVNYMHWYQQKPGQAPRLLIYTTSNLASGIPARFSGSGSGTDYTLTISSMEPEDFAVYYCQQRSTYPFTFGQGTKLEIK | 1.46 nM
5 | hu23.H3L2 (antibody, V domains shown, humanized c23) VH: QVQLVQSGAEVKKPGASVKLSCKASGYNLKDTFLHWVRQAPGQGLEWIGRIDPANGNIKYDPKFQGRATITADTSASTAYMELSSLRSEDTAVYYCANSPYYYGSGYRIFDVWGQGTTVTVSS VL: EIVLTQSPATLSLSPGERATLSCSAFSSVNYMHWYQQKPGQAPRLLIYTTSNLASGIPARFSGSGSGTDYTLTISSLEPEDFAVYYCQQRSTYPFTFGQGTKLEIK | 1.34 nM
6 | hu23.H2L3 (antibody, V domains shown, humanized c23) VH: QVQLVQSGAEVKKPGASVKVSCKASGYNLKDTFLHWVRQAPGQGLEWMGRIDPANGNIKYDPKFQGRVTITADTSASTAYMELSSLRSEDTAVYYCANSPYYYGSGYRIFDVWGQGTTVTVSS VL: EIVLTQSPATLSASPGERATLSCSAFSSVNYMHWYQQKPGQAPRLLIYTTSNLASGIPARFSGSGSGTDYTLTISSMEPEDFAVYYCQQRSTYPFTFGQGTKLEIK | 2.03 nM
7 | hu23.H1L3 (antibody, V domains shown, humanized c23) VH: QVQLVQSGAEVKKPGASVKVSCKASGYNLKDTFLHWVRQAPGQRLEWMGRIDPANGNIKYDPKFQGRVTITRDTSASTAYMELSSLRSEDTAVYYCARSPYYYGSGYRIFDVWGQGTTVTVSS VL: EIVLTQSPATLSASPGERATLSCSAFSSVNYMHWYQQKPGQAPRLLIYTTSNLASGIPARFSGSGSGTDYTLTISSMEPEDFAVYYCQQRSTYPFTFGQGTKLEIK | 2.77 nM
8 | hu23.H3L3 (antibody, V domains shown, humanized c23) VH: QVQLVQSGAEVKKPGASVKLSCKASGYNLKDTFLHWVRQAPGQGLEWIGRIDPANGNIKYDPKFQGRATITADTSASTAYMELSSLRSEDTAVYYCANSPYYYGSGYRIFDVWGQGTTVTVSS VL: EIVLTQSPATLSASPGERATLSCSAFSSVNYMHWYQQKPGQAPRLLIYTTSNLASGIPARFSGSGSGTDYTLTISSMEPEDFAVYYCQQRSTYPFTFGQGTKLEIK | 3.29 nM
